Experimental data from EP4644419A1 (Hangzhou Zhongmeihuadong Pharmaceutical Co., Ltd., dated 2025).

Tests used:
[1] = biological target: T1, human CD112R on antigen-specific CD8+ T cells (human, UniProt Q6DKI7 1-326); test: cell-based or functional assay
T1 sequence (looked up): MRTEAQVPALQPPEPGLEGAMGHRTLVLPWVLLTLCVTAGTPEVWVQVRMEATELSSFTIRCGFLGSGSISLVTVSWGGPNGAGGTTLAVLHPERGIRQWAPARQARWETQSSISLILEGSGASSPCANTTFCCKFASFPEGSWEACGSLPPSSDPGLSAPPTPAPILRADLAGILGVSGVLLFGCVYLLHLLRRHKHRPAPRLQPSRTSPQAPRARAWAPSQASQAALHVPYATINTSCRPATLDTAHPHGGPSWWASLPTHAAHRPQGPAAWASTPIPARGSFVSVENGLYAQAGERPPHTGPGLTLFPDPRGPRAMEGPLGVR

[2] = biological target: T2, human CD112R antigen protein huCD112R-His (Acro Biosysterm, PVG-H52H4) (human, UniProt Q6DKI7 41-171); test: SPR (Biacore X100), antibody captured on Protein A chip, huCD112R-His as analyte, 1:1 Langmuir
T2 construct: purchased; also called human antigen protein; not shown: His tag
T2 sequence (looked up): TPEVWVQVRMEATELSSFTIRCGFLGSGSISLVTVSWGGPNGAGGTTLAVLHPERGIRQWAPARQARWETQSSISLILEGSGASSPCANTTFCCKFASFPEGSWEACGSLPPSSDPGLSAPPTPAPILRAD

[3] = biological target: T2, human CD112R antigen protein …; test: ELISA, huCD112R-His coated on plate
[4] = biological target: T3, human CD112R on GS-J2C/CD112R effector cells (human, UniProt Q6DKI7 1-326); test: cell-based or functional assay
T3 sequence (looked up): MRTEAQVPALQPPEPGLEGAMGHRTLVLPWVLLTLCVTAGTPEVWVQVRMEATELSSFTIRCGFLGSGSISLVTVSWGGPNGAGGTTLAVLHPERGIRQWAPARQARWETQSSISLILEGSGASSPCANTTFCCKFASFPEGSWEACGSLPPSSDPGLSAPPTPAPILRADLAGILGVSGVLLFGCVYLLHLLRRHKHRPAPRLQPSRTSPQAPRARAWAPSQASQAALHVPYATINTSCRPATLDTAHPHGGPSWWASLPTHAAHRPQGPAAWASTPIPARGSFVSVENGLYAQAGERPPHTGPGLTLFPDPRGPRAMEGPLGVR

[5] = biological target: T4, monkey antigen protein (monkey CD112R, Uniprot ID: A0A2K5WVV8) (monkey, UniProt A0A2K5WVV8 41-171); test: ELISA, monkey antigen protein (as Example 6.1)
T4 sequence: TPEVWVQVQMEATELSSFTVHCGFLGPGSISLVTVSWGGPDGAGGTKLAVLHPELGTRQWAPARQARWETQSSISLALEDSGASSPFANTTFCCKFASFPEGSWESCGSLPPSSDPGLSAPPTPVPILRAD

B1: C7 (antibody, human IgG1, kappa, V domains shown)
VH: EVQLQQSGPELVKPGASVKISCKASGYTLTDYYMNWVKQSHGKSLEWIGDINPNNGGTNFNQKFKGKATLTIDKSSSTTYMELRSLTSEDSAVYYCASLFFDYWGQGTTLTVSS
VL: DIVMTQSPSSLSVSAGEKVTMSCKSSQSLLNSGNQKNYLAWYQQKPGQPPKLLIYGASTRESGVPDRFTGSGSGTDFTLTISSVQAEDLALYYCQNAHSSPYTFGGGTKLEIKR
With B1 the “IFN-γ(pg/ml) at 0.5µg/ml antibody” value [1] was 818 pg/mL, the “IFN-γ(pg/ml) at 5µg/ml antibody” value [1] was 837 pg/mL and the Kd [2] was 0.0576 nM. For the same binder, the EC50 [3] was 0.034 nM, the “EC50 (Blocking effects of the antibodies, reporter gene method)” value [4] was 0.031 µg/mL and the EC50 [5] was 0.08 nM.
